# Key:
# human FcγRIIβ (human) = human FcγRIIβ (human) (UniProt P31994); assay: SPR, antibody captured on ProA/G HC30M chip, recombinant human FcγRIIβ injected (4 nM-5 uM); average kinetic KD
# Hu FcγRIIA_H131 (human) = Hu FcγRIIA_H131 (human) (UniProt P12318); assay: SPR-type chip kinetics; antibody captured on protein A/G chip, receptor as analyte
# Hu FcγRIIA_R131 (human) = Hu FcγRIIA_R131 (human) (UniProt P12318); assay: as above
# Hu FcγRIIA_R131 (human), sequence (P12318 36-218 H167R limits assumed): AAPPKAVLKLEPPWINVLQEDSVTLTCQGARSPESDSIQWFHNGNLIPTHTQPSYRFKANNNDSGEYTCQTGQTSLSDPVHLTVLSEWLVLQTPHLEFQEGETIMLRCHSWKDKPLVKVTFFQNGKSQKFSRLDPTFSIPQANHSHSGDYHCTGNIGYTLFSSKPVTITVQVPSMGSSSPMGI
# human FcγRIIβ (human), sequence (P31994 46-217 limits assumed): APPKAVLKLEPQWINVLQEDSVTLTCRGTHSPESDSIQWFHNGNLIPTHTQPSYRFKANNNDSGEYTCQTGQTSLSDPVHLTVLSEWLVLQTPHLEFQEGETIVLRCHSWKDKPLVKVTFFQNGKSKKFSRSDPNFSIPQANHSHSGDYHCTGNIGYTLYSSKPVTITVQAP
# Hu FcγRIIA_H131 (human), sequence (P12318 36-218 limits assumed): as the sequence (P12318 36-218 H167R limits assumed) above, with R132H counted along it
Substance,Kd (human FcγRIIβ (human)) [nM],Kd (Hu FcγRIIA_H131 (human)) [nM],Kd (Hu FcγRIIA_R131 (human)) [nM]
2B6 (antibody),0.407,–,–
IgG1 WT (antibody),–,1000,1550
